From patent US20240101686A1
Read-outs that look alike come from different tables or passages of the source. Blank lines part the entries; values can stand above or below the substance they belong to.

What was measured:
[1] = molecular target: human EGFR on cells (human) (UniProt P00533)
[2] = molecular target: human EGFRvIII on cells (human) (UniProt P00533); assay: FACS on CHO-K1-EGFRvIII 2G3 cells
[3] = molecular target: human EGFR-His-tagged fusion protein (human) (UniProt P00533)
[4] = molecular target: human EGFR on cells (human) (UniProt P00533); remark: listed apart in the source
[5] = molecular target: human EGFR on cells (human) (UniProt P00533); remark: listed apart in the source
[6] = molecular target: human EGFR-His-tagged fusion protein (human) (UniProt P00533); remark: listed apart in the source
[7] = molecular target: Her2 protein (human) (UniProt P04626)
[8] = molecular target: human EGFR-His-tagged fusion protein (human) (UniProt P00533); remark: listed apart in the source
[9] = molecular target: human EGFR on cells (human) (UniProt P00533); remark: listed apart in the source
[10] = molecular target: human EGFR on cells (human) (UniProt P00533); remark: listed apart in the source
[11] = molecular target: human EGFRvIII on cells (human) (UniProt P00533)
[12] = molecular target: monkey EGFR protein (commercial, SB, catalog number 90285-C08H) (monkey); assay: ELISA, coated monkey EGFR protein, antibody 100 nM
[13] = molecular target: human EGFRvIII-His tag protein (extracellular domain Leu25-Ser378) (human) (UniProt P00533)
[14] = molecular target: human EGFRvIII-His tag protein (extracellular domain Leu25-Ser378) (human) (UniProt P00533); remark: listed apart in the source
[15] = molecular target: monkey EGFR protein (commercial, SB, catalog number 90285-C08H) (monkey); assay: ELISA, coated monkey EGFR protein, antibody 0.001 nM
[16] = molecular target: murine EGFR protein (murine) (UniProt Q01279)
[17] = molecular target: human EGFRvIII-His tag protein (extracellular domain Leu25-Ser378) (human) (UniProt P00533); remark: listed apart in the source
[18] = molecular target: monkey EGFR protein (commercial, SB, catalog number 90285-C08H) (monkey); assay: ELISA, coated monkey EGFR protein, antibody 0.1 nM
[19] = molecular target: human EGFRvIII-His tag protein (extracellular domain Leu25-Ser378) (human) (UniProt P00533); remark: listed apart in the source
[20] = molecular target: cynomolgus monkey EGFR on HEK293T-monkey EGFR cells (cynomolgus monkey); assay: FACS, HEK293T-monkey EGFR cells (specificity assay)
[21] = molecular target: monkey EGFR protein (commercial, SB, catalog number 90285-C08H) (monkey); assay: ELISA, coated monkey EGFR protein, antibody 0.01 nM
[22] = molecular target: monkey EGFR protein (commercial, SB, catalog number 90285-C08H) (monkey); assay: ELISA, coated monkey EGFR protein, antibody 1 nM
[23] = molecular target: murine EGFR protein (murine) (UniProt Q01279); remark: listed apart in the source
[24] = molecular target: human EGFRvIII-His tag protein (extracellular domain Leu25-Ser378) (human) (UniProt P00533); remark: listed apart in the source
[25] = molecular target: human EGFRvIII-His tag protein (extracellular domain Leu25-Ser378) (human) (UniProt P00533); remark: listed apart in the source
[26] = molecular target: monkey EGFR protein (commercial, SB, catalog number 90285-C08H) (monkey); assay: ELISA, coated monkey EGFR protein, antibody 10 nM
[27] = molecular target: murine EGFR protein (murine) (UniProt Q01279); remark: listed apart in the source
[28] = molecular target: murine EGFR protein (murine) (UniProt Q01279); remark: listed apart in the source
[29] = molecular target: murine EGFR protein (murine) (UniProt Q01279); remark: listed apart in the source
[30] = molecular target: murine EGFR protein (murine) (UniProt Q01279); remark: listed apart in the source
[31] = molecular target: murine EGFR protein (murine) (UniProt Q01279); remark: listed apart in the source
[32] = molecular target: human EGFRvIII-His tag protein (extracellular domain Leu25-Ser378) (human) (UniProt P00533); remark: listed apart in the source
[33] = molecular target: cynomolgus monkey EGFR on HEK293T-monkey EGFR cells (cynomolgus monkey); assay: FACS, HEK293T-monkey EGFR cells
[34] = molecular target: monkey EGFR protein (commercial, SB, catalog number 90285-C08H) (monkey); assay: ELISA, coated monkey EGFR protein, antibody 0 nM (blank)
[35] = molecular target: monkey EGFR protein (commercial, SB, catalog number 90285-C08H) (monkey); assay: ELISA, coated monkey EGFR protein, antibody 0.0001 nM
[36] = molecular target: human EGFRvIII-His tag protein (extracellular domain Leu25-Ser378) (human) (UniProt P00533); remark: listed apart in the source
[37] = molecular target: murine EGFR protein (murine) (UniProt Q01279); remark: listed apart in the source
[38] = molecular target: human EGFR endogenously expressed on A431 cells (human) (UniProt P00533)

- Max MFI [1]: 159
- Average fluorescence intensity [2]: 35.4
- OD450 [3]: 0.07
- Average fluorescence intensity [4]: 1560
- Average fluorescence intensity [5]: 1560
- OD450 [6]: 0.05
- OD450 [7]: 0.21
- OD450 [8]: 0.71
- Average fluorescence intensity [9]: 1560
- Average fluorescence intensity [10]: 74
- Average fluorescence intensity [11]: 35.4
Substance: anti-hel-hIgG1 (antibody)

- OD450 [12]: 0.71
- OD450 [13]: 0.6
- OD450 [14]: 0.07
- OD450 [15]: 0.09
- OD450 [16]: 0.06
- OD450 [17]: 0.08
- OD450 [18]: 0.09
- OD450 [19]: 0.22
- Max MFI [20]: 141
- OD450 [21]: 0.19
- OD450 [22]: 0.21
- OD450 [23]: 0.06
- OD450 [24]: 0.09
- OD450 [25]: 0.19
- OD450 [26]: 0.13
- OD450 [27]: 0.06
- OD450 [28]: 0.12
- OD450 [29]: 0.05
- OD450 [30]: 0.05
- OD450 [31]: 0.06
- OD450 [32]: 0.07
- Max MFI [33]: 240
- OD450 [34]: 0.07
- OD450 [35]: 0.06
- OD450 [36]: 0.13
- OD450 [37]: 1.16
- Max MFI [38]: 199
Substance: anti-hel-hIgG1 (negative control antibody against hen egg lysozyme)
